The supplement of paper PMC6757056
± gives the standard deviation of the averaged measurements.

B1: library; a variant is named by its letters at N, in order (parent)
chain: GCUGUCACCGGUGCUUGGUACGUUAUAUUCAGCCGGUCUGAUGAGUCUNNNNNNAGACGAAACAGC

Key:
[1] = variants of: B1; assay: FACS-Seq fitted mean relative fluorescence mCherry/BFP without ligand (log10 relative fluorescence); HEK293T overexpressing SLC46A1; higher = higher reporter protein expression; conditions: without (6R,S)-folinic acid; ligand present: no
In short: (§1)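 To measure fluorescence, a normal distribution was fitted to read counts across sorted bins. The reporter libraries were HEK293T cells transduced by lentivirus with mCherry under ribozyme-switch control and an EF1α-BFP marker, enriched and then kept with or without ligand for 48 h. Sorting used 6 mCherry/BFP bins, and bin genomic DNA was PCR-amplified and sequenced on MiSeq. Fitted means of log10(mCherry/BFP) were scaled to five spiked-in control ribozymes.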

[2] = variants of: B1; assay: normalized RNA/DNA level without ligand (relative to sTRSVctl = 100) (log10 (% of sTRSVctl)); HEK293T overexpressing SLC46A1; higher = less ribozyme self-cleavage, higher mRNA level; conditions: without (6R,S)-folinic acid; ligand present: no
In short: (§2)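 Total RNA, extracted with EDTA 72 h after HEK293T cells were transfected with 4 µg per 6-well well of reporter-linked ribozyme switch library plasmids, was reverse-transcribed, amplified, barcoded and sequenced. Ligand, if used, was added 1 h before transfection. RNA level was derived from RNA reads divided by DNA reads and normalized to a spiked-in non-cleaving sequence or to the top sequences. This was multiplied by 100 and log10-transformed, with the top set of 25 sequences and a ≥100 DNA read minimum.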

[3] = variants of: B1; assay: FACS-Seq fitted mean relative fluorescence mCherry/BFP with ligand (log10 relative fluorescence); HEK293T overexpressing SLC46A1; ligand concentration (+) FACS-Seq: 6 mM; higher = higher reporter protein expression; conditions: with (6R,S)-folinic acid; ligand present: yes
In short: as §1

[4] = variants of: B1; assay: normalized RNA/DNA level with ligand (relative to sTRSVctl = 100) (log10 (% of sTRSVctl)); HEK293T overexpressing SLC46A1; ligand concentration (+) RNA-Seq: 6 mM; higher = less ribozyme self-cleavage, higher mRNA level; conditions: with (6R,S)-folinic acid; ligand present: yes
In short: as §2

| Variant | FACS-Seq fitted mean (log10) [1] | normalized RNA/DNA level without ligand (log10) [2] | FACS-Seq fitted mean (log10) [3] | normalized RNA/DNA level with ligand (log10) [4] |
| --- | --- | --- | --- | --- |
| CUCCGG | 0.136 ± 0.061 | 2.044 ± 0.0029 | -0.307 ± 0.12 | 2.05 ± 0.028 |
| GUCAAG | 0.249 ± 0.027 | 1.974 ± 0.0083 | 0.168 ± 0.075 | 2.03 ± 0.045 |
| UUCAGG | 0.449 ± 0.081 | 1.894 ± 0.0032 | 0.666 ± 0.2 | 1.98 ± 0.057 |
| GUCUGC | 0.325 ± 0.12 | 2.025 ± 0.0038 | 0.295 ± 0.085 | 2.07 ± 0.053 |
| GUCUGG | 0.433 ± 0.03 | 2.027 ± 0.0089 | 0.385 ± 0.25 | 2.07 ± 0.063 |
| AUGAAG | 0.432 ± 0.049 | 1.836 ± 0.0092 | 0.578 ± 0.14 | 1.99 ± 0.048 |
| AUGAAA | 0.535 ± 0.016 | 1.944 ± 0.0099 | 0.656 ± 0.15 | 1.98 ± 0.033 |
| AUGAAU | 0.232 ± 0.017 | 1.929 ± 0.013 | 0.0739 ± 0.05 | 2 ± 0.022 |
| UUGGUG | 0.364 ± 0.16 | 1.75 ± 0.031 | 0.52 ± 0.26 | 2.01 ± 0.053 |
| UUGAAG | 0.386 ± 0.00085 | 1.75 ± 0.026 | 0.374 ± 0.21 | 1.981 ± 0.0095 |
| UUGAAA | 0.358 ± 0.051 | 1.936 ± 0.014 | 0.286 ± 0.27 | 2.02 ± 0.028 |
| CUGGCU | 0.556 ± 0.0076 | 2.033 ± 0.016 | 0.55 ± 0.13 | 2.02 ± 0.036 |
| AUAUAU | 0.272 ± 0.026 | 1.947 ± 0.011 | 0.459 ± 0.073 | 1.99 ± 0.02 |
| AUAUAG | 0.309 ± 0.028 | 1.91 ± 0.021 | 0.295 ± 0.25 | 2 ± 0.022 |
| AUGUAG | 0.508 ± 0.058 | 1.864 ± 0.016 | 0.615 ± 0.17 | 1.99 ± 0.035 |
| GUCUAU | 0.0107 ± 0.49 | 2 ± 0.014 | 0.473 ± 0.4 | 2.02 ± 0.026 |
| GUCCAG | 0.335 ± 0.07 | 1.966 ± 0.011 | 0.103 ± 0.16 | 1.975 ± 0.018 |
| UUGCAG | 0.439 ± 0.019 | 1.886 ± 0.0031 | 0.636 ± 0.033 | 2 ± 0.042 |
| UUGGGG | 0.207 ± 0.029 | 1.824 ± 0.0037 | 0.521 ± 0.12 | 2.02 ± 0.036 |
| UUGGGU | 0.184 ± 0.18 | 1.943 ± 0.0059 | 0.455 ± 0.16 | 1.98 ± 0.033 |
| UUCUAA | 0.64 ± 0.015 | 2.014 ± 0.011 | 0.66 ± 0.067 | 2.01 ± 0.026 |
| UUCUAG | 0.502 ± 0.03 | 1.879 ± 0.0029 | 0.872 ± 0.074 | 1.99 ± 0.044 |
| AUCACA | 0.256 ± 0.074 | 2.004 ± 0.0041 | 0.0653 ± 0.038 | 2.02 ± 0.032 |
| CUGGGA | 0.446 ± 0.08 | 2.006 ± 0.014 | 0.348 ± 0.35 | 2.03 ± 0.047 |

| Variant | FACS-Seq fitted mean (log10) [1] | normalized RNA/DNA level without ligand (log10) [2] | FACS-Seq fitted mean (log10) [3] | normalized RNA/DNA level with ligand (log10) [4] |
| --- | --- | --- | --- | --- |
| GUGACC | 0.7143 ± 0.0036 | 2.03 ± 0.0039 | 0.585 ± 0.22 | 2.02 ± 0.028 |
| GUGACA | 0.277 ± 0.2 | 1.989 ± 0.003 | 0.446 ± 0.1 | 1.99 ± 0.05 |
| GUCUUG | 0.0388 ± 0.018 | 1.974 ± 0.0081 | 0.151 ± 0.32 | 2.05 ± 0.049 |
| UUAUGU | 0.389 ± 0.12 | 1.919 ± 0.0091 | 0.413 ± 0.13 | 1.987 ± 0.019 |
| UUAUGA | 0.0124 ± 0.043 | 1.9284 ± 0.0007 | -0.0229 ± 0.25 | 2.01 ± 0.027 |
| GUCGCC | 0.306 ± 0.12 | 2.015 ± 0.012 | 0.25 ± 0.17 | 2.02 ± 0.052 |
| GUCGCA | 0.512 ± 0.053 | 2.03 ± 0.021 | 0.745 ± 0.29 | 2.01 ± 0.041 |
| CUAUUG | 0.309 ± 0.21 | 2.023 ± 0.011 | 0.316 ± 0.2 | 2.01 ± 0.0053 |
| CUAUUU | 0.149 ± 0.064 | 1.984 ± 0.0088 | -0.0506 ± 0.019 | 1.984 ± 0.016 |
| AUCUCG | 0.399 ± 0.02 | 1.976 ± 0.012 | 0.435 ± 0.35 | 2.04 ± 0.035 |
| GUAUGC | 0.271 ± 0.067 | 1.891 ± 0.015 | 0.404 ± 0.15 | 2 ± 0.03 |
| GUGCUG | -0.457 ± 0.06 | 2.077 ± 0.012 | -0.879 ± 0.14 | 2.05 ± 0.065 |
| CUGCCC | 0.494 ± 0.029 | 2.07 ± 0.041 | 0.403 ± 0.0067 | 2.06 ± 0.021 |
| AUGGAA | 0.0999 ± 0.019 | 1.919 ± 0.0071 | -0.0772 ± 0.045 | 1.993 ± 0.0063 |
| AUGGAC | 0.279 ± 0.031 | 1.955 ± 0.0055 | 0.259 ± 0.12 | 1.99 ± 0.022 |
| AUGGAG | 0.271 ± 0.039 | 1.735 ± 0.0043 | 0.622 ± 0.21 | 1.97 ± 0.02 |
| GUGCCG | 0.617 ± 0.24 | 2.0438 ± 0.0018 | 0.702 ± 0.27 | 2.04 ± 0.052 |
| GUGGAC | 0.143 ± 0.12 | 1.868 ± 0.016 | -0.011 ± 0.21 | 1.975 ± 0.0039 |
| CUGCAG | 0.542 ± 0.11 | 1.91 ± 0.021 | 0.679 ± 0.4 | 1.977 ± 0.0074 |
| GUGAGA | 0.474 ± 0.23 | 1.973 ± 0.013 | 0.54 ± 0.081 | 2.02 ± 0.022 |
| GUGAGG | 0.394 ± 0.093 | 1.872 ± 0.0053 | 0.497 ± 0.2 | 2.015 ± 0.0075 |
| UUCGAG | 0.119 ± 0.084 | 1.77 ± 0.033 | 0.699 ± 0.054 | 1.97 ± 0.055 |
| GUAUUU | 0.142 ± 0.24 | 2 ± 0.022 | 0.173 ± 0.0069 | 2.01 ± 0.033 |
| CUCGCU | 0.424 ± 0.087 | 2.06 ± 0.044 | 0.349 ± 0.091 | 2.02 ± 0.038 |

| Variant | FACS-Seq fitted mean (log10) [1] | normalized RNA/DNA level without ligand (log10) [2] | FACS-Seq fitted mean (log10) [3] | normalized RNA/DNA level with ligand (log10) [4] |
| --- | --- | --- | --- | --- |
| CUCGCA | 0.235 ± 0.086 | 2.06 ± 0.013 | 0.416 ± 0.3 | 2.062 ± 0.011 |
| GUGAUA | 0.573 ± 0.073 | 1.97 ± 0.017 | 0.371 ± 0.036 | 2 ± 0.022 |
| AUGGCG | 0.284 ± 0.024 | 1.91 ± 0.022 | 0.359 ± 0.058 | 2.04 ± 0.031 |
| AUGAGU | 0.287 ± 0.0094 | 1.788 ± 0.017 | 0.639 ± 0.18 | 1.97 ± 0.04 |
| AUGAGC | -0.023 ± 0.066 | 1.998 ± 0.0094 | 0.192 ± 0.3 | 2.03 ± 0.028 |
| AUGAGA | 0.466 ± 0.025 | 1.944 ± 0.014 | 0.537 ± 0.077 | 2.014 ± 0.016 |
| UUAUAG | 0.192 ± 0.026 | 1.8081 ± 0.0015 | 0.396 ± 0.16 | 1.99 ± 0.034 |
| UUAUAC | 0.677 ± 0.11 | 1.994 ± 0.012 | 0.593 ± 0.097 | 1.99 ± 0.036 |
| AUCGCU | 0.152 ± 0.036 | 2.026 ± 0.01 | 0.222 ± 0.45 | 2.013 ± 0.015 |
| AUGCAC | 0.724 ± 0.038 | 2.001 ± 0.0052 | 0.703 ± 0.1 | 2.014 ± 0.01 |
| AUGCAA | 0.349 ± 0.0069 | 1.9632 ± 0.00072 | 0.36 ± 0.083 | 1.976 ± 0.011 |
| GUCACG | 0.0918 ± 0.029 | 2.024 ± 0.0084 | 0.228 ± 0.096 | 2.042 ± 0.015 |
| GUCACC | 0.379 ± 0.15 | 2.07 ± 0.021 | 0.061 ± 0.042 | 2.063 ± 0.013 |
| GUCCCC | -0.921 ± 0.05 | 2.022 ± 0.014 | -1.94 ± 0.26 | 1.995 ± 0.0047 |
| UUGAUG | 0.136 ± 0.018 | 1.797 ± 0.0018 | 0.436 ± 0.22 | 1.99 ± 0.046 |
| GUAUCA | 0.376 ± 0.03 | 2.045 ± 0.01 | 0.586 ± 0.01 | 2.04 ± 0.03 |
| UUCCAA | 0.112 ± 0.15 | 1.992 ± 0.0026 | 0.213 ± 0.13 | 2 ± 0.028 |
| AUGAUU | 0.418 ± 0.17 | 1.989 ± 0.0036 | 0.334 ± 0.023 | 2.02 ± 0.027 |
| AUGAUG | 0.408 ± 0.071 | 1.87 ± 0.023 | 0.544 ± 0.23 | 1.98 ± 0.023 |
| AUCAGU | -0.132 ± 0.056 | 1.97 ± 0.021 | -0.238 ± 0.53 | 1.996 ± 0.017 |
| GUCAUG | 0.406 ± 0.047 | 2.004 ± 0.01 | 0.165 ± 0.087 | 2.03 ± 0.027 |
| UUGGAG | -0.00192 ± 0.0051 | 1.71 ± 0.035 | 0.315 ± 0.1 | 1.99 ± 0.016 |
| UUGGAA | 0.241 ± 0.03 | 1.9 ± 0.025 | 0.528 ± 0.17 | 1.99 ± 0.029 |
| AUAUCC | 0.455 ± 0.027 | 2.0352 ± 0.00073 | 0.839 ± 0.019 | 2.03 ± 0.039 |
